Laboratory results published in a protein production outcome set (Wang et al. 2014).

Assay: label from the status in PepcDB records

Sequence	protein production
MNDFSLELPVRTNKPRETGQSILIDNGYPLQFFKDAIAGASDYIDFVKFGWGTSLLTKDLEEKISTLKEHDITFFFGGTLFEKYVSQKKVNEFHRYCTYFGCEYIEISNGTLPMTNKEKAAYIADFSDEFLVLSEVGSKDAELASRQSSEEWLEYIVEDMEAGAEKVITEARESGTGGICSSSGDVRFQIVDDIISSDIDINRLIFEAPNKTLQQGFIQKIGPNVNLANIPFHDAIALETLRLGLRSDTFFL	not failed
MIEAYKDYWKRYIDFKGKSNRLEFWTPVLVHIISIFIIALIGAFSFIVGIFIVAAVLSALIGLFGLANIVPMAAVTLRRFYDAGRKRTTAIILIILSVVVNIVFDIIQVDSIAVFLNIVSIICTIILVIETLLPSKNVEDAQLKWL	failed
MSYLLRSDPVSRIHPEPQSLTSFDHFDLLPDSLLLLIFDKVADVKDLGRCCIVSRRFHSLVPFVENVLVRVDCVISDDDSSSSDENHRFSLNTASISDAGGAGGSFSALFRLVFAPIFKPFQMLGQILGPKRSSSSFDASFSAINDEIGVTHHSPTQVLKNFGEIRFLKIELPTGELGIEDGILLKWRADFGSTLDNCMILGASSVIQSNSVKNHENSVDEDNGNIPESFYTNGGLKLRVVWTISSLIAASARHYLLQPIINEHKSLDRLVLSDADGQGVLCMNREQLEELRVTPLSASSASKRTLVPALNMRLWYAPELDLPDGTVLKGATLVAIRPSESKKEVCDASWLSDAFEEPFGTVAKMLIKRRTYCLEMNSF	failed
SPFIRANTAWLGHLEFAYDLVRFEKPEILVELGTHMGASFFSFCQGVKDGGLATKCFAVDTWTGDGHTGPYGEGVFHIVDKVVKTSYPNIGNLIKSTFDEAVDQFQDGTINLLHIDGYHTYEAVSHDYKTWLPKLADNGIVLFHDIEVKDRNFGVYKFWDEVKAKYPHFQFQHSYGLGVLFPKGCSDRFKEILKNKEEIQDMYK	failed
MSVPQGARDVEAIRAIGPDQWQTVPAGQTLNRGFSDDEFWLQVRVPAQPANRVLEVGYPLLDEVSVYWELDGRIIESHHTGDTRPFDSRPIVHRNFVFLVPSNTEPVTAWIRVQTQGSVQVPVAVTPSAEFLANEQISYGWQTMFLGIVVALALYNLFLFLIVRHQTYLWYVLTVVCSGAVQLNFNGLLFQWFWPDVPWINRYFTVPVVSAALIAAIVFTMKFLLVKSYSRWGYRILQALLAVNLLGLIYGFLGSYQVGIIWISSLAAFATPVAWLIGINVWRRGQILGGFYVLAWTPLLLGHLVLAVSKLGWIPRSPFTELAPQAGVAVEVILLSFALAYRINMERRRRQQAQEHALDIQRQANLTLESRVRERTEELEQANEQLRAISLTDGLTHVANRRRFDEKLETEWNRALRHEHELSLILLDIDHFKQVNDRFGHLVGDDCLVALASILSDEVQRSGDLVARYGGEEFAILLPTTDVAGAQQVAERMRLSVARTPVNSGEHMSPVSLTISLGVATLTPNRQSDCQELIRRADEALYAAKSDGRNRVVVWHPKAVAPTTG	failed
MEFGYIGLMVSVVLIGISVYGFLNSKNIVRIFLSSEILVNASILIVFSVSSLTNQVYLPIYFSLFAIGMALVEIVVAFAAIFLYYKNKGSLEVE	failed
MSLNMFWFLPTHGDGHYLGTEEGSRPVDHGYLQQIAQAADRLGYTGVLIPTGRSCEDAWLVAASMIPVTQRLKFLVALRPSVTSPTVAARQAATLDRLSNGRALFNLVTGSDPQELAGDGVFLDHSERYEASAEFTQVWRRLLQRETVDFNGKHIHVRGAKLLFPAIQQPYPPLYFGGSSDVAQELAAEQVDLYLTWGEPPELVKEKIEQVRAKAAAHGRKIRFGIRLHVIVRETNDEAWQAAERLISHLDDETIAKAQAAFARTDSVGQQRMAALHNGKRDNLEISPNLWAGVGLVRGGAGTALVGDGPTVAARINEYAALGIDSFVLSGYPHLEEAYRVGELLFPLLDVAIPEIPQPQPLNPQGEAVANDFIPRKVAQS	not failed
MKIITIEEHFESEVITNEINKVTGNLVSGQVSPEMFQYMQKELPSAMEMQDTEKRLAFMDQHGIDMQVLSYGNSSPQNLGPKISVALCKRANDELAKVIQQNPTRFAGFAVLPVGSPEDAAIELKRAVEELGFKGALVKGQFENKYFDNSFYYPIFEMAEKLDVPISFHPSFIPEPITEQYFASDAWSDVVTGVFSSAGFGWHMDVGIQVVRMILSGIFDKLPNLKIITGHLGEMVPMFLNRMDDTLGHWTTLERKISDYYRTNVYVTPSGLLYKNEWKFLLNELDENHLIYALDYPFVKTENAGTFLDTLDLTDEVKAKIAHENAEKLLHL	not failed
MTNILILMEREIIKILSVVEFHPLILAFHLGLMLAGVSLLSYSLFLILVKKVDIMLPLVISFMAYLTSLILLILILLLETYRFLIFDGRILVKNSLLTRNEFKFSLRDKNLIIGFYDKASLGKFAIIYGDRLLFKFLTQQKNIRLIKNFVVKSGYRLGGTYKICRVCGSINEENAEYCDFCGSREVSPYDLYWID	failed
MQKKSQTAQSYHPMIKEFPEFYGPLTCPGQFLALLILEFGLNFAEIQKLKWENFNWNFKYLTIEKAGIKRVLPIREKFAIRVKAINNADELFAKSRQFLYTELKKFTNYSSKEIREQYILHQVKAGKSIYELATLLGLTTITTLEKYYRLEHHHHHH	failed
MIPFKDITLADRDTITAFTMKSDRRNCDLSFSNLCSWRFLYDTQFAVIDDFLVFKFWAGEQLAYMMPVGNGDLKAVLRKLIEDADKEKHNFCMLGVCSNMRADLEAILPERFIFTEDRAYADYIYLRSDLATLKGKKFQAKRNHINRFRNTYPDYEYTPITPDRIQECLDLEAEWCKVNNCDQQEGTGNERRALIYALHNFEALGLTGGILHVNGKIVAFTFGMPINHETFGVHVEKADTSIDGAYAMINYEFANRIPEQYIYINREEDLGIEGLRKAKLSYQPVTILEKYMACLKDHPMDMVRW	not failed
MYSRLPTTYELIEALQASPQAGPAAESRLATVLWAGFVLALVPMLVAGGALVWWHRVLAQVPPAWLPQVFHVLLAVCGVFYVGAWVIRLLDRRAALQHPLRWLTRRLDTQSEVENALLLRLGRIPALQLRARQRRVVLQARLWDASARTMALVLAIGPAAVILADGVAVMAPGGVPALVAIYGAVLVAGCALALFAQLQCSAPLRRLAHVLGEAAEINEAVNRQRQP	failed
MEVPKEQIATLIEHGLYDSAEMLGCFLVSSPTVSAETSPQLKAENLILLGDALFHQREHRRAIHTYKQALHHYTRIPKQSSGISRSSLSLSTRSSVNASSISAINENEVRFKIASSHFALNETKAAIAEMESVKTRSLEMNILMAKLHRNSGYNRGAIAFYKECLRQCPYVLEAVIGLAELGVSAKDIISSFTQTSNRSAKVSLDQIDPTRWLQRYVEAQCCVASHAYKGALELFAELLQRFPNNVHLLTETAKVEAIIGKNDEAIMRFEKVRSIDPYTLTSMDEYAMLLQIKCDYSRLNKLVHDLLSVDHTRAEVFVALSVLWERKDARTALSYAEKSIRVDERHIPGYIMKGNLLLQAKRPEAAAIAFRAAQNLRSDLRSYQGLVHSYLAFGKTKEALYTAREAMNAMPQSAKALKLVGDVHAFTSSGREKAKKFYESGLRLEPGYLGAVLALAELHLMEGRNGDAVSLLERYLKDYADDSLHVKLAQVFAATNMLQDSLSHFQAALRINPQNEAAKKGLDRLEKQMKGIDPDATDENDENDVEDVDGDTEEAELM	failed
MPCRGLHAIPAGPPEFPELATIYVVCGDKLNVMIDAGVTNSIMDSSFLEKLDLVILTHIHIDHIGLLPEILDRYKNAKVMIKNGFKKFLTTEDGVRRLNESSEKVLGDLYYIYGEFTKIDPDKVVEVEGGEMIDIGDGKTLKIIYTPGHAKHHISVVSDDILFTGDSGGAYFNGAVIPTTPPPLDYDNYVNSLRLQISLKPKVVGLAHGGLVSPNILEQHLDQMLGKESFDIGEIDIGGIGGEILRKQVEVNLRGLNEALGRNKKTLLEHHHHHH	failed
VKAAQGLLLSVFHLYPKRKVEIILYNEKWAECFDEEKERLKLVFGPEIIAIHHIGSTSIPNMAAKPIIDMLIEVRSIEAVSQFDEQMKANGYTPKGENGIAGRRYFQKGGNKRTHHVHMYEQGNPAIERHLLFRDYLRAHPNIAKEYAVLKKQLAAQHPDSINQYIQGKDEWIKTAEENAKRWKKGRNNANGSIVCYNSENDENGGFTL	failed
MKIALINENSQASKNHIIYDSLKEATDKKGYQLFNYGMRGEEGESQLTYVQNGLMAAILLNTKAVDFVVTGCGTGVGAMLALNSFPGVVCGLAVDPTDAYLYSQINGGNALSIPYAKGFGWGAELTLKLMFERLFAEEMGGGYPRERVIPEQRNARILNEVKQITHNDLMTILKIIDQDFLKDTISGKYFQEYFFENCQDDEVAAYLKEVLA	failed
YRYDEQLNLCLERLSSGKDKNKSVLQNKYVRCSVRAEVRHLRRVLCHRLMLNPQHVQLLFDNEVLPDHMTMKQIWLSRWFGKPSPLLLQYS	failed
MSLAQADGIAFRELSFPEALKRAEVEDKLLFVDCFTTWCGPCKRLSKVVFKDSLVADYFNRHFVNLKMDMEKGEGVELRKKYGVHAYPTLLFINSSGEVVYRLVGAEDAPELLKKVKLGVESEGHHHHHH	not failed
MLDKGGGRGKLSSPERFREWTRKTMAKQDELVFVPLGGVGEIGMNLALYGYGPESKRQWIMVDCGVTFAGPDLPGVDLVLPDISYIAEQKKNLKGIIITHAHEDHYGAMNDLWPGLNVPVYASPFTAGMLEAKRAYEGTRAEIPVTIFKAGDRINVGPFEIEAVGVNHSIPEPMSLIIRTPLGNVIHTGDWKIDEAPSLGPLTDEARFRAIGEEGVLALMCDSTNALRDGVSPSEHEVSEGLRQIIESAEGRVAVTTFSSNVGRIRSIAQAAEAAGREVLLLGSSLKRVVNVSQDLGIMEGIKPFLAEDEYGYIPRDRVVVILTGSQGEPRAALAKLSRDEMRNVALASGDTVVFSSRAIPGNEKAIIEIKNGLIEQGVHIVTDNEALVHVSGHPRRNELLRMYEWTKPQILVPVHGEAAHLVAQKELAEQAGISQVPKVRNGNVLRLAPGPAEVINDVPHGRVFKDGNLVGDMDEMGISNRRKLSFAGHVAVNVVLDSRYDFLGDPDVVPFGLPEFDDEDEAMEDTLYDAVLGAVESIPRARRKDLALLRESVRRAVRAAANQSWGKKPIVTVFVTKV	failed
MEDLEETLFEEFENYSYDLDYYSLESDLEEKVQLGVVHWVSLVLYCLAFVLGIPGNAIVIWFTGFKWKKTVTTLWFLNLAIADFIFLLFLPLYISYVAMNFHWPFGIWLCKANSFTAQLNMFASVFFLTVISLDHYIHLIHPVLSHRHRTLKNSLIVIIFIWLLASLIGGPALYFRDTVEFNNHTLCYNNFQKHDPDLTLIRHHVLTWVKFIIGYLFPLLTMSICYLCLIFKVKKRSILISSRHFWTILVVVVAFVVCWTPYHLFSIWELTIHHNSYSHHVMQAGIPLSTGLAFLNSCLNPILYVLISKKFQARFRSSVAEILKYTLWEVSCSGTVSEQLRNSETKNLCLLETAQ	failed
MERSEEEIENLWKLQSEVKQRSESVKSIITELEIERGTLKVRALKLKEDSDVLTTWVEMNYLKLTSMDMGRIEEMFEIESEVEGLAGDDAIEDVLRVLEEAAERGELEIGSYLKQVRVLAREQFFLKHLSSFKTQNFHI	failed
MDRLNQIQIILVETSLSANIGSAARAMKTMGLSNLRLVRPKNPLDEQATALAAGAKNILDNAQIFNTFDAAIADCQLIIGTSARLRHLQSTLVEPRECGKLIINNTNQHKIALIFGRERIGLTNEELLKCHYHLNVPTNPEYESLNLAMAVQLACYEIRMAWLELQKKPIIQPLTEEKNYPTAAAMAHFFDHTERLYKELGFIRNDAVMLKLRRLYQRAKLEENELNLLRGMLTAVEKHRIS	failed
